Measured values reported in article PMC7498313, “The Sac10b homolog from Sulfolobus islandicus is an RNA chaperone”.
Several values for one entry are separate records, joined by “and”; a condition that tells them apart may be missing. Equal entries are not always repeated.

Key:
[1] = biological target: Sis10b M20E/L24E/L27E/F60E (Sulfolobus islandicus REY15A); assay: cross-linking; 10 μg protein cross-linked with 0.5 mM DSP, with or without 5 μg of a 25-bp dsRNA, 30 min at 25 or 55°C, 20 mM potassium phosphate pH 7.6, 50 mM KCl; 15% SDS-PAGE, Coomassie stain
[2] = biological target: N-terminally truncated Sis10b (ΔN12) (Sulfolobus islandicus REY15A); assay: as above
Sis10b wild-type = biological target: T1, Sis10b wild-type (Sulfolobus islandicus REY15A, UniProt F0NHH1 1-97); assay: EMSA; 55°C; EMSA: 20 mM HEPES-NaOH pH 7.0, 1 mM DTT, 100 ug/ml BSA, 6% glycerol, 30 min at 25, 37 or 55°C; gel in 0.5x TBE at the same temperature; details: protein: recombinant, tags: none (NdeI/XhoI pET30a, stop codon in reverse primer), chain copies: 2
T1 sequence: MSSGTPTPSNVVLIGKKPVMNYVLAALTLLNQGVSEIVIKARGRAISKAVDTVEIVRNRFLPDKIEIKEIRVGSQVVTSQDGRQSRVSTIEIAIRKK

For Sis10b M20E/L24E/L27E/F60E, the stoichiometry N [1] was 5 and 3.

For “N-terminally truncated Sis10b (ΔN12) (domain or fragment)”, the stoichiometry N [2] was 2 and 4.

B1: 44-bp dsRNA (dsRNA)
RNA 1: UGACUUCCGCGCGUGAGCUCGAUUCCACAUACCCUAAAUCGCUC
RNA 2: GAGCGAUUUAGGGUAUGUGGAAUCGAGCUCACGCGCGGAAGUCA
Work on B1 yielded a Kd (Sis10b wild-type; label: 5' 32P on top strand, blunt) of about 29.4 nM.

UGACUUCCGCGCGUGAGCUCGAUUCCACAUACCCUAAAUCGCUC (ssRNA) [44-nt ssRNA (t)] was tested, and the Kd (Sis10b wild-type; label: 5' 32P, single strand) was about 5.3 nM.
